The values below come from patent publication US20180117084A1.

The test has as its target full-length CTLA-4 (flCTLA-4) secreted by human dendritic cells on microvesicles/exosomes (human) (UniProt P16410). Kind of test: cell-based or functional assay.
Chain of UniProt P16410 (P16410 36-223 limits assumed): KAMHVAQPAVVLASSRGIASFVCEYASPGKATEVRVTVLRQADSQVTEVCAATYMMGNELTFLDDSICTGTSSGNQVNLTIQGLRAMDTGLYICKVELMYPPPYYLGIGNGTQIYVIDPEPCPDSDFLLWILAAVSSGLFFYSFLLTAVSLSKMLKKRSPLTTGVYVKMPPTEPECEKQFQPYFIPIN

The substance “αHuman CTLA-4 clone BNI3 (cat #: 555851, BD Pharmingen) (antibody)” had a percentage of CFSE+ recipient DC after pre-clearance of supernatant with αCTLA-4 beads (20 minutes at 4 C, 0.1% sodium azide) of 45%; an uptake of CFSE-labeled exosomes by unlabeled DC after incubation of supernatant with αCTLA-4 coated beads, antibody at 5 µg/ml of 26%; an uptake of CFSE-labeled exosomes by unlabeled DC after incubation of supernatant with αCTLA-4 coated beads, antibody at 50 µg/ml of 35%.
